The source of these data is patent publication US20180265850A1.

Experiment [1] addresses human FKBP (12 kD, GenBank accession number: AAP36774.1) (human) (UniProt P62942). Nature of the experiment: cell-based or functional assay.
The target of experiment [2] is FRB (11 kD, PDB access number: 1AUE A) (UniProt P42345). Nature of the experiment: cell-based or functional assay.

Sequence of human FKBP (12 kD, GenBank accession number: AAP36774.1) (human) (P62942 whole entry): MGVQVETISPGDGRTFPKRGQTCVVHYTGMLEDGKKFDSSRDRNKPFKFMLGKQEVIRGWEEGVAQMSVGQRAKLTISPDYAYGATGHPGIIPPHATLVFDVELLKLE
Sequence of human FKBP (12 kD, GenBank accession number: AAP36774.1) (P62942 whole entry): as above

In experiment [1], “FRB (11 kD, PDB access number: 1AUE A) (from UniProt P42345 2015-2114)” gave a bioluminescence intensity of probe TPv2.4 (printed 'TPv2') in COS-7 lysate, 10^-6 M rapamycin vs vehicle of 6.7 fold; a bioluminescence of living COS-7 cells expressing TPv2.4 on a microslide, 10^-6 M rapamycin vs control of 6 fold; a bioluminescence of probe TPv2.7 (FRB-ALuc30(1-212)-FKBP), 10^-6 M rapamycin vs vehicle of 2 fold; a bioluminescence of probe TPv2.8 (FRB-ALuc30(19-212)-FKBP), 10^-6 M rapamycin vs vehicle of 2 fold. Besides, the luminescence intensity of cells expressing TPv2.4, 10^-6 M rapamycin in experiment [1] turned out to be 5.4 fold.
As to “human FKBP (12 kD, GenBank accession number: AAP36774.1) (from UniProt P62942 1-108)”, in experiment [2], the optical intensity of probe TPv1.3 (printed 'TPv11.3'; FKBP-ALuc23(1-212)-FRB) with 10^-6 M rapamycin (fraction of intensity without rapamycin) was determined as 0.33 and the optical intensity of probe TPv1.7 (FKBP-ALuc30(1-212)-FRB) with 10^-6 M rapamycin (fraction of intensity without rapamycin) worked out at 0.33.
